Results as given in patent US20110008302.
Positions count from the first letter of the chain named. Numbers in names are those of the source.

T1: H3K36(me2) peptide ATGGV-K(me2)-KPHRY
T1 chain: ATGGVKKPHRY

T2: H3K4(me3) peptide ART-K(me3)-QTARKST
T2 chain: ARTKQTARKST

B1: bacterially expressed mouse Ndy1 fragment containing the JmjC, CXXC and PHD domains (aa 171-707) (protein)
chain: MWPQHLKEKQTEATNALAEMKYPKVKKYCLMSVKGCFTDFHIDFGGTSVWYHVFRGGKIFWLIPPTLHNLALYEEWVLSGKQSDIFLGDRVERCQRIELKQGYTFFIPSGWIHAVYTPVDSLVFGGNILHSFNVPMQLRIYEIEDRTRVQPKFRYPFYYEMCWYVLERYVYCVTQRSYLTQEYQRELMLIDAPRKTSVDGFSSDSWLDMEEESCEQQPQEEEEEEEDKEEEGDGADKTPKPPTDDPTSPTSTPPEDQDSTGKKPKAPAIRFLKRTLSNESEESVKSTSMPTDDPKTPTGSPATEVSTKWTHLTEFELKGLKALVEKLESLPENKKCVPEGIEDPQALLEGVKNVLKEHVDDDPTLAITGVPVVSWPKKTAKNRVVGRPKGKLGPASAVKLAANRTTAGARRRRTRCRKCEACLRTECGECHFCKDMKKFGGPGRMKQSCIMRQCIAPVLPHTAVCLVCGEAGKEDTVEEEEGKFNLMLMECSICNEIIHPGCLKIKESEGVVNDELPNCWECPKCNHAGKTGKQKRG
B2: 171-707 Ndy1 fragment containing the Y221A mutation (protein)
chain: B1 chain with Y51A

Key:
[1] = molecular target: T1, H3K36(me2) peptide ATGGV-K(me2)-KPHRY
[2] = molecular target: T2, H3K4(me3) peptide ART-K(me3)-QTARKST

Protein	fluorescence coupled demethylation assay [1]	specific activity (ratio H3K36me2 versus H3K4me3 peptide) [1]	fluorescence coupled demethylation assay [2]
B1	shown to demethylate both H3K36me2 and H3K4me3 peptides, with high and low efficiencies respectively	about three times higher specific activity towards the H3K36me2 versus the H3K4me3 peptide	shown to demethylate both H3K36me2 and H3K4me3 peptides, with high and low efficiencies respectively
B2	failed to demethylate either of the peptide substrates	–	failed to demethylate either of the peptide substrates
